Reference: article PMC10837352

Biological target: N‐terminal TadA‐8e (split site R74) fused to nMagHigh1 (UniProt P68398)

Which results are given for “pMag fused to C‐terminal TadA‐8e (split site R74) and nCas9 (from UniProt P68398 75-167)”?
adenine base editing at the ABES4 and ABES6 targets in E. coli DH10B, level 2‐BLABE (nMagHigh1‐pMag), in the absence of blue light, Sanger sequencing: 3%; adenine base editing at the ABES4 and ABES6 targets in E. coli DH10B, level 2‐BLABE (nMagHigh1‐pMag), in the presence of blue light (10 mW cm^−2, 6 h), Sanger sequencing: 90%
